For assay [1], the target named is Human FcγRIIIA 158V (human) (UniProt P08637). Kind of assay: SPR (T100), biotinylated receptor on streptavidin chip, equilibrium binding, 1:1 model.
For assay [2], the target named is Human FcγRIIIA 158F (human) (UniProt P08637). Described as above.
Human FcγRIIIA 158F (human), sequence (P08637 17-199 limits assumed): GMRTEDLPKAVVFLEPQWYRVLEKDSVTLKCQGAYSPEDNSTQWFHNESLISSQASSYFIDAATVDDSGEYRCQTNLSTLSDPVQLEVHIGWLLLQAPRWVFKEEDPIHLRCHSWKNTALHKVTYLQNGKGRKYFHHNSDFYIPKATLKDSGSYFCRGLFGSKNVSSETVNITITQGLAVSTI

Human FcγRIIIA 158V (human), sequence (P08637 other isoform, or with tags, fused parts or gaps): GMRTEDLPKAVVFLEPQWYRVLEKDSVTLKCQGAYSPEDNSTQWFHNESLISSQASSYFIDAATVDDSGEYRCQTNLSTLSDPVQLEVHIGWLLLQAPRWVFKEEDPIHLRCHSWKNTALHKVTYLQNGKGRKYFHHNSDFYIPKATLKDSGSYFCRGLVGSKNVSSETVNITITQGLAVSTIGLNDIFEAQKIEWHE

Regarding HCD122 (antibody), the Ka in assay [1] was determined as 1.72e+06 M⁻¹; in assay [2], 699000 M⁻¹.
